Laboratory results from US10253323B2, “Chloroplast transit peptides” (priority 2015, dated 2019).
“Also recorded” adds a separate entry of the source.

Experiments:
[1] = system: chloroplasts of the maize protoplasts; experiment: Maize protoplast transient assay, microscopy of TraP-GFP; format: cell-based, Zea mays c.v. B104; conditions: TraP-GFP fusion, transfected maize protoplasts, microscopy after 12 hours
Method: Seed of Zea mays c.v. B104 were surface sterilized by shaking vigorously in 50% Clorox™ (3% sodium hypochlorite), containing 2-3 drops of Tween® 20, for about 20 minutes. The seeds were rinsed thoroughly with sterile distilled water. The sterile seed were plated onto ½ MS medium in Phytatrays or similar type boxes, and allowed to grow in the dark (28° C.) for 12 to 20 days. A maize protoplast transient assay was used to obtain and transfect maize protoplasts from leaves of Zea mays c.v. B104. This maize protoplast assay is a modification of the system described by Yoo, S.-D., Cho, Y.-H., and Sheen, J., (2007), Arabidopsis Mesophyll Protoplasts: A Versitile Cell System for Transient Gene Expression Analysis, Nature Protocols, 2: 1565-1572. The solutions were prepared as described by Yoo et. al., (2007), with the exception that the mannitol concentration used for the following experiments was change to 0.6 M.
Transfection of 100 to 500 μl of protoplasts (1-5×10^5 cells) was completed by adding the protoplasts to a 2 ml microfuge tube containing about 40 μg of plasmid DNA, at room temperature. The volume of DNA was preferably kept to about 10% of the protoplast volume. The protoplasts and DNA were occasionally mixed during a 5 minute incubation period. An equal volume of PEG solution was slowly added to the protoplasts and DNA, 2 drops at a time with mixing in between the addition of the drops of PEG solution. The tubes were allowed to incubate for about 10 minutes with occasional gentle mixing. Next, 1 ml of W5+ solution was added and mixed by inverting the tube several times. The tube(s) were centrifuged for 5 minutes at 75× g at a temperature of 4° C. Finally, the supernatant was removed and the pellet was resuspended in 1 ml of WI solution and the protoplasts were placed into a small petri plate (35×10 mm) or into 6-well multiwell plates and incubated overnight in the dark at room temperature. Fluorescence of GFP was viewed by microscopy after 12 hours of incubation. The microscopy conditions similar to those previously described were used for the imaging.

[2] = system: chloroplasts of the tobacco leaf tissues; experiment: Tobacco transient assay, confocal microscopy of TraP-YFP/GFP; format: cell-based, Nicotiana tabacum; conditions: TraP-YFP or TraP-GFP fusion, Agrobacterium-infiltrated tobacco leaf tissue
From the text: The above described chimeric chloroplast transit peptide sequences were initially tested via a transient in planta assay. Polynucleotide sequences which encode the TraP10 (SEQ ID NO:9), TraP11 (SEQ ID NO:10), TraP17 (SEQ ID NO:11), TraP18 (SEQ ID NO:12), TraP19 (SEQ ID NO:13), TraP26 (SEQ ID NO:14), TraP27 (SEQ ID NO:15), and TraP28 (SEQ ID NO:16), chimeric chloroplast transit peptide sequences were synthesized. A linker sequence (SEQ ID NO:17) was incorporated between the TraP sequence and the yfp coding sequence of TraP10 and TraP11. The resulting constructs contained two plant transcription units (PTU). The first PTU was comprised of the Arabidopsis thaliana Ubiquitin 10 promoter (AtUbi10 promoter; Callis, et al., (1990) J. Biol. Chem., 265: 12486-12493), TraP-yellow fluorescent protein fusion gene (TraP-YFP; US Patent App. 2007/0298412) or the TraP-green fluorescent protein fusion gene (TraP-GFP; Sheen et al., (1995) Plant J., 8(5): 777-84), and Agrobacterium tumefaciens ORF 23 3′ untranslated region (AtuORF23 3′UTR; U.S. Pat. No. 5,428,147). The second PTU was comprised of the Cassava Vein Mosaic Virus promoter (CsVMV promoter; Verdaguer et al., (1996) Plant Molecular Biology, 31: 1129-1139), phosphinothricin acetyl transferase (PAT; Wohlleben et al., (1988) Gene, 70: 25-37) or DSM-II (International Patent App. 2008070845), and Agrobacterium tumefaciens ORF 1 3′ untranslated region (AtuORF1 3′UTR; Huang et al., (1990) J. Bacteriol., 172: 1814-1822). Construct pDAB101979 contains the TraP10 chimeric chloroplast transit peptide (FIG. 3). Construct pDAB101980 contains the TraP11 chimeric chloroplast transit peptide (FIG. 4). Construct pDAB107634 contains the TraP17 chimeric chloroplast transit peptide (FIG. 5). Construct pDAB107635 contains the TraP18 chimeric chloroplast transit peptide (FIG. 6). Construct pDAB107636 contains the TraP19 chimeric chloroplast transit peptide (FIG. 7). Construct pDAB109847 contains the TraP26 chimeric chloroplast transit peptide (FIG. 8). Construct pDAB109848 contains the TraP27 chimeric chloroplast transit peptide (FIG. 9). Construct pDAB109849 contains the TraP28 chimeric chloroplast transit peptide (FIG. 10). […] The constructs were confirmed via restriction enzyme digestion and sequencing. Finally, the constructs were transformed into Agrobacterium tumefaciens and stored as glycerol stocks.
From an Agrobacterium glycerol stock, a loop full of frozen culture was inoculated into 2 ml of Yeast-extract Peptone Dextrose (100 μg/ml spectinomycin) in a 14 ml sterile tube. The inoculated media was incubated at 28° C. overnight with shaking at 200 rpm. The following day about 100 μl of the culture was used to inoculate 25 ml of YPD (100 μg/ml spectinomycin) in a 125 ml sterile tri-baffled flask, and incubated overnight at 28° C. overnight with shaking at 200 rpm. The following day the cultures were diluted to an OD600 of 0.5 in sterile ddH2O (pH 8.0). The diluted Agrobacterium strain was mixed with a second Agrobacterium strain containing the P19 helper protein at a ratio of 1:1. The culture were used for tobacco leaf infiltration via the Voinnet method. Voinnet O, Rivas S, Mestre P, and Baulcombe D, (2003) An enhanced transient expression system in plants based on suppression of gene silencing by the p19 protein of tomato bushy stunt virus. The Plant Journal, 33: 949-956. Infiltrated tobacco plants were placed in a Conviron™ set at 16 hr of light at 24° C. for at least three days until being assayed.
Agrobacterium-infiltrated tobacco leaves were severed from the plant, and placed into a petri-dish with water to prevent dehydration. The infiltrated tobacco leaves were observed under blue light excitation with long-pass filter glasses held in place using a Dark Reader Hand Lamp™ (Clare Chemical Research Co.; Dolores, Colo.) to identify undamaged areas of the leaf that were successfully expressing the YFP or GFP reporter proteins. […]

[3] = system: infiltrated tobacco cells; experiment: Western blot of infiltrated tobacco plants; format: cell-based, Nicotiana tabacum; conditions: infiltrated tobacco leaf tissue
Method: Samples of the infiltrated tobacco plants were assayed via Western blotting. Leaf punches were collected and subjected to bead-milling. About 100-200 mg of leaf material was mixed with 2 BBs (Daisy; Rogers, Ark.) and […] of PBST for 3 minutes in a Kleco™ bead mill. The samples were then spun down in a centrifuge at 14,000× g at 4° C. The supernatant was removed and either analyzed directly via Western blot or immunoprecipitated. The immunoprecipitations were performed using the Pierce Direct IP Kit™ (Thermo Scientific; Rockford, Ill.) following the manufacturer's protocol. Approximately, 50 μg of anti-YFP or anti-GFP was bound to the resin. The samples were incubated with the resin overnight at 4° C. Next, the samples were washed and eluted the following morning and prepped for analysis by combining equal volumes of 2×8M Urea sample buffer and then boiling the samples for 5 minutes. The boiled samples were run on a 4-12% SDS-Bis Tris gel in MOPS buffer for 40 minutes. The gel was then blotted using the Invitrogen iBlot™ (Life Technologies; Carlsbad, Calif.) following the manufacturer's protocol. The blotted membrane was blocked for 10 minutes using 5% non-fat dry milk in PBS-Tween® solution. The membrane was probed with the primary antibody (monoclonal anti-GFP or anti-YFP in rabbit) used at a 1:1000 dilution in the 5% non-fat dry milk in PBS-Tween® solution for 1 hour. Next, the membrane was rinsed three times for five minutes with PBS-Tween® to remove all unbound primary antibody. The membrane was probed with a secondary monoclonal anti-rabbit in goat antibody (Life Technologies) used at a 1:1000 dilution, for 60 minutes. The membrane was washed as previously described and developed by adding Themo BCIP/NBT™ substrate. The colormetric substrate was allowed to develop for 5-10 minutes and then the blots were rinsed with water before being dried.

[4] = system: dgt-28 transformed T1 Arabidopsis; experiment: Glyphosate tolerance of dgt-28 transformed T1 Arabidopsis; format: in vivo, Arabidopsis thaliana; conditions: dgt-28 linked with the chloroplast transit peptide, T1 Arabidopsis
Method: The Arabidopsis T1 transformants (from transformation with pDAB114286 or pDAB114287) were first selected from the background of untransformed seed using a glufosinate selection scheme. Three flats or 50,000 seed were analyzed for each T1 construct. The selected T1 plants were molecularly characterized (as described above) and events with a range of copy number were sprayed with various rates of commercial glyphosate.
Transgenic T1 Arabidopsis plants containing the dgt-28 transgene were sprayed with differing rates of glyphosate. Elevated rates were applied in this study to determine the relative levels of resistance (420, 840, 1,680 or 3,360 g ae/ha). The typical 1× field usage rate of glyphosate is 1120 g ae/ha. The response of these plants is presented in terms of % visual injury 2 weeks after treatment (WAT). The T1 Arabidopsis plants that were used in this study were of variable copy number for the dgt-28 transgene. The low copy dgt-28 T1 Arabidopsis plants were self-pollinated and used to produce T2 plants.
An arithmetic mean and standard deviation is presented for each construct used for Arabidopsis transformation. The range in individual response is also indicated in the last column for each rate and transformation. Wildtype, non-transformed Arabidopsis thaliana c.v. Columbia served as a glyphosate sensitive control.

Molecule | translocation of GFP fluorescent protein into chloroplasts [1] | translocation of GFP fluorescent protein into chloroplasts ([1]; listed as TraP18-GFP) | translocation of YFP or GFP fluorescent protein into chloroplasts [2] | translocation of YFP or GFP fluorescent protein into chloroplasts ([2]; listed as TraP18-GFP) | TraP processed and cleaved from the YFP or GFP protein [3] | translocation of GFP fluorescent protein into chloroplasts ([1]; listed as TraP19-GFP) | translocation of GFP fluorescent protein into chloroplasts ([1]; listed as Trap19) | translocation of YFP or GFP fluorescent protein into chloroplasts ([2]; listed as TraP19-GFP) | translocation of YFP or GFP fluorescent protein into chloroplasts ([2]; listed as TraP27-GFP) | protection to glyphosate [4]
TraP18: chimeric chloroplast transit peptide, SEQ ID NO:4; N-terminus Oryza sativa, C-terminus Amaranthus; tested fused to GFP (pDAB107635) (protein, TraP18) MAATMASNAAAAAAVSLDQAVAASAAFSSKTLNFGSNLRISPKFMSLTNKRVGGQSSIVPKIQASVA | accumulated within the chloroplasts; also recorded: successfully targeted GFP to maize and tobacco chloroplasts | translocated into the chloroplasts | accumulated within the chloroplasts; also recorded: successfully targeted GFP to maize and tobacco chloroplasts | translocated into the chloroplasts | processed and cleaved from the YFP or GFP protein | – | – | – | – | –
TraP19: chimeric chloroplast transit peptide, SEQ ID NO:5; N-terminus Amaranthus, C-terminus Dunaliella salina; tested fused to GFP (pDAB107636) (protein, TraP19) MAQATTINNGVHTGQLHHTLPKTQLPKSSKVNDVVPHVYSAPLSVARRSCSKSSIRSTRRLQTTVCS | successfully targeted GFP to maize and tobacco chloroplasts | – | accumulated within the chloroplasts; also recorded: successfully targeted GFP to maize and tobacco chloroplasts | – | processed and cleaved from the YFP or GFP protein | translocated into the chloroplasts | accumulated within the chloroplasts | translocated into the chloroplasts | – | –
TraP27: synthetic chloroplast transit peptide, SEQ ID NO:7; tested fused to GFP (pDAB109848) (protein, TraP27) MATFTRVCHTARKSFVSLSNSQANSPVSVRFLSLPMPAARPAVKSGVRLWGCRLSFKVSAS | – | – | accumulated within the chloroplasts; also recorded: successfully targeted GFP to tobacco chloroplasts | – | processed and cleaved from the YFP or GFP protein | – | – | – | translocated into the chloroplasts | provide protection to glyphosate
